The text below walks through data of patent publication US20210388087A1 (Chugai, published 2021).

Residue numbers refer to the chain shown, from its start. Names may count otherwise.

The chains are these.
B1: dBBDu183H L100dQ / dBBDu072L (antibody, name in Kabat numbering, V domains shown)
VH: QVQLVESGGGLVQPGRSLRLSCAASGFTFSNAWMHWVRQAPGKGLEWVAQIKDKGNAYAAYYAPSVKGRFTISRDDSKNSIYLQMNSLKTEDTAVYYCHYVHYASASTVQPAFGVDAWGQGTTVTVSS
VL: DIVMTQSPLSLPVTPGEPASISCQASQELVHMNRNTYLHWYQQKPGQAPRLLIYKVSNRFPGVPDRFSGSGSGTDFTLKISRVEAEDVGVYYCAQGTSVPFTFGQGTKLEIK
notes: as m1, one VH change
B2: dBBDu183H S62Y / dBBDu072L (antibody, name in Kabat numbering, V domains shown)
VH: B1 VH with S65Y, Q110L
VL: B1 VL
notes: as m1, one VH change
B3: dBBDu183H P61W / dBBDu072L (antibody, name in Kabat numbering, V domains shown)
VH: B1 VH with P64W, Q110L
VL: B1 VL
notes: as m1, one VH change
B4: dBBDu183H S99G / dBBDu072L (antibody, name in Kabat numbering, V domains shown)
VH: B1 VH with S105G, Q110L
VL: B1 VL
notes: as m1, one VH change
B5: dBBDu183H P100eT / dBBDu072L (antibody, name in Kabat numbering, V domains shown)
VH: B1 VH with Q110L, P111T
VL: B1 VL
notes: as m1, one VH change
B6: dBBDu183H P61D / dBBDu072L (antibody, name in Kabat numbering, V domains shown)
VH: B1 VH with P64D, Q110L
VL: B1 VL
notes: as m1, one VH change
B7: dBBDu183H P61E / dBBDu072L (antibody, name in Kabat numbering, V domains shown)
VH: B1 VH with P64E, Q110L
VL: B1 VL
notes: as m1, one VH change
B8: dBBDu183H P61H / dBBDu072L (antibody, name in Kabat numbering, V domains shown)
VH: B1 VH with P64H, Q110L
VL: B1 VL
notes: as m1, one VH change
B9: dBBDu183H L100dS / dBBDu072L (antibody, name in Kabat numbering, V domains shown)
VH: B1 VH with Q110S
VL: B1 VL
notes: as m1, one VH change
B10: dBBDu183H P100eR / dBBDu072L (antibody, name in Kabat numbering, V domains shown)
VH: B1 VH with Q110L, P111R
VL: B1 VL
notes: as m1, one VH change
B11: dBBDu183H S62D / dBBDu072L (antibody, name in Kabat numbering, V domains shown)
VH: B1 VH with S65D, Q110L
VL: B1 VL
notes: as m1, one VH change
B12: dBBDu183H P100eG / dBBDu072L (antibody, name in Kabat numbering, V domains shown)
VH: B1 VH with Q110L, P111G
VL: B1 VL
notes: as m1, one VH change
B13: dBBDu183H P61T / dBBDu072L (antibody, name in Kabat numbering, V domains shown)
VH: B1 VH with P64T, Q110L
VL: B1 VL
notes: as m1, one VH change
B14: dBBDu183H S62G / dBBDu072L (antibody, name in Kabat numbering, V domains shown)
VH: B1 VH with S65G, Q110L
VL: B1 VL
notes: as m1, one VH change
B15: dBBDu183H P61R / dBBDu072L (antibody, name in Kabat numbering, V domains shown)
VH: B1 VH with P64R, Q110L
VL: B1 VL
notes: as m1, one VH change
B16: dBBDu183H L100dV / dBBDu072L (antibody, name in Kabat numbering, V domains shown)
VH: B1 VH with Q110V
VL: B1 VL
notes: as m1, one VH change
B17: dBBDu183H P61N / dBBDu072L (antibody, name in Kabat numbering, V domains shown)
VH: B1 VH with P64N, Q110L
VL: B1 VL
notes: as m1, one VH change
B18: dBBDu183H S62E / dBBDu072L (antibody, name in Kabat numbering, V domains shown)
VH: B1 VH with S65E, Q110L
VL: B1 VL
notes: as m1, one VH change
B19: dBBDu183H S62K / dBBDu072L (antibody, name in Kabat numbering, V domains shown)
VH: B1 VH with S65K, Q110L
VL: B1 VL
notes: as m1, one VH change
B20: dBBDu183H S99H / dBBDu072L (antibody, name in Kabat numbering, V domains shown)
VH: B1 VH with S105H, Q110L
VL: B1 VL
notes: as m1, one VH change
B21: dBBDu183H P61Q / dBBDu072L (antibody, name in Kabat numbering, V domains shown)
VH: B1 VH with P64Q, Q110L
VL: B1 VL
notes: as m1, one VH change
B22: dBBDu183H L100dW / dBBDu072L (antibody, name in Kabat numbering, V domains shown)
VH: B1 VH with Q110W
VL: B1 VL
notes: as m1, one VH change
B23: dBBDu183H P100eS / dBBDu072L (antibody, name in Kabat numbering, V domains shown)
VH: B1 VH with Q110L, P111S
VL: B1 VL
notes: as m1, one VH change
B24: dBBDu183H P100eQ / dBBDu072L (antibody, name in Kabat numbering, V domains shown)
VH: B1 VH with Q110L, P111Q
VL: B1 VL
notes: as m1, one VH change
B25: dBBDu183H S62N / dBBDu072L (antibody, name in Kabat numbering, V domains shown)
VH: B1 VH with S65N, Q110L
VL: B1 VL
notes: as m1, one VH change
B26: dBBDu183H S62Q / dBBDu072L (antibody, name in Kabat numbering, V domains shown)
VH: B1 VH with S65Q, Q110L
VL: B1 VL
notes: as m1, one VH change
B27: dBBDu183H S62H / dBBDu072L (antibody, name in Kabat numbering, V domains shown)
VH: B1 VH with S65H, Q110L
VL: B1 VL
notes: as m1, one VH change
B28: dBBDu183H S99K / dBBDu072L (antibody, name in Kabat numbering, V domains shown)
VH: B1 VH with S105K, Q110L
VL: B1 VL
notes: as m1, one VH change
B29: dBBDu183H S62F / dBBDu072L (antibody, name in Kabat numbering, V domains shown)
VH: B1 VH with S65F, Q110L
VL: B1 VL
notes: as m1, one VH change
B30: dBBDu183H S62V / dBBDu072L (antibody, name in Kabat numbering, V domains shown)
VH: B1 VH with S65V, Q110L
VL: B1 VL
notes: as m1, one VH change
B31: dBBDu183H P61F / dBBDu072L (antibody, name in Kabat numbering, V domains shown)
VH: B1 VH with P64F, Q110L
VL: B1 VL
notes: as m1, one VH change
B32: dBBDu183H S62T / dBBDu072L (antibody, name in Kabat numbering, V domains shown)
VH: B1 VH with S65T, Q110L
VL: B1 VL
notes: as m1, one VH change
B33: dBBDu183H P100eN / dBBDu072L (antibody, name in Kabat numbering, V domains shown)
VH: B1 VH with Q110L, P111N
VL: B1 VL
notes: as m1, one VH change
B34: dBBDu183H P61S / dBBDu072L (antibody, name in Kabat numbering, V domains shown)
VH: B1 VH with P64S, Q110L
VL: B1 VL
notes: as m1, one VH change
B35: dBBDu183H S99Q / dBBDu072L (antibody, name in Kabat numbering, V domains shown)
VH: B1 VH with S105Q, Q110L
VL: B1 VL
notes: as m1, one VH change
B36: dBBDu183H P61K / dBBDu072L (antibody, name in Kabat numbering, V domains shown)
VH: B1 VH with P64K, Q110L
VL: B1 VL
notes: as m1, one VH change
B37: dBBDu183H S62R / dBBDu072L (antibody, name in Kabat numbering, V domains shown)
VH: B1 VH with S65R, Q110L
VL: B1 VL
notes: as m1, one VH change
B38: dBBDu183H S62W / dBBDu072L (antibody, name in Kabat numbering, V domains shown)
VH: B1 VH with S65W, Q110L
VL: B1 VL
notes: as m1, one VH change
B39: dBBDu183H P100eD / dBBDu072L (antibody, name in Kabat numbering, V domains shown)
VH: B1 VH with Q110L, P111D
VL: B1 VL
notes: as m1, one VH change
B40: dBBDu183H P61G / dBBDu072L (antibody, name in Kabat numbering, V domains shown)
VH: B1 VH with P64G, Q110L
VL: B1 VL
notes: as m1, one VH change
B41: dBBDu183H P61Y / dBBDu072L (antibody, name in Kabat numbering, V domains shown)
VH: B1 VH with P64Y, Q110L
VL: B1 VL
notes: as m1, one VH change
B42: dBBDu183H P100eE / dBBDu072L (antibody, name in Kabat numbering, V domains shown)
VH: B1 VH with Q110L, P111E
VL: B1 VL
notes: as m1, one VH change
B43: dBBDu183H P100eH / dBBDu072L (antibody, name in Kabat numbering, V domains shown)
VH: B1 VH with Q110L, P111H
VL: B1 VL
notes: as m1, one VH change
B44: dBBDu183H P100eK / dBBDu072L (antibody, name in Kabat numbering, V domains shown)
VH: B1 VH with Q110L, P111K
VL: B1 VL
notes: as m1, one VH change

The assay deals with T1, Human CD137 ECD (human).
T1 construct: also called 4-1BB
T1 sequence (chain, as listed by the source limits assumed): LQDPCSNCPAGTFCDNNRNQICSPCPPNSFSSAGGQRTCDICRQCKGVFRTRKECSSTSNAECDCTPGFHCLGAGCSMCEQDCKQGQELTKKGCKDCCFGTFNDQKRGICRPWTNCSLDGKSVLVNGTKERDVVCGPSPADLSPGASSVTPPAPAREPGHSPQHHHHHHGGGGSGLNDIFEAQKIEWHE
In words: SPR, vs parent H183/L072. A general note: Surface plasmon resonance follows binding to a sensor surface in real time, without labels.
As for B1, the “fold change of affinity” value came to 0.5 fold. The same measure for B2: 0.7 fold; for B3: 0.8 fold. With B4 the figure was 1 fold. B5: the “fold change of affinity” value came out at 0.2 fold.

For B6, the “fold change of affinity” value was 0.7 fold. With B7 the figure was 0.7 fold. The same measure for B8: 0.9 fold. Turning to B9, the “fold change of affinity” value is 0.5 fold. Consider B10, for which the “fold change of affinity” value is 0.3 fold.

In the case of B11, the “fold change of affinity” value stood at 0.9 fold. With B12 the figure was 0.4 fold. For B13, the “fold change of affinity” value amounted to 1.4 fold.

Turning to B14, the “fold change of affinity” value came out at 1 fold. With B15, the “fold change of affinity” value stood at 1 fold. In the case of B16, the “fold change of affinity” value stood at 0.5 fold.

For B17, the “fold change of affinity” value was found to be 1.2 fold.

With B18, the “fold change of affinity” value came to 0.8 fold.

B19: the “fold change of affinity” value is 0.9 fold.

In the case of B20, the “fold change of affinity” value was 1.5 fold. With B21 the figure was 0.6 fold; with B22, 0.2 fold; with B23, 0.4 fold.

Consider B24, for which the “fold change of affinity” value is 0.4 fold.

Take B25: the “fold change of affinity” value was 0.9 fold. The same measure for B26: 1 fold. With B27 the figure was 0.9 fold; with B28, 1.2 fold. With B29, the “fold change of affinity” value was determined as 0.5 fold.

Turning to B30, the “fold change of affinity” value worked out at 0.9 fold. The same measure for B31: 0.7 fold. The same measure for B32: 1 fold; for B33: 0.2 fold; for B34: 1.1 fold. In the case of B35, the “fold change of affinity” value was determined as 0.6 fold. With B36 the figure was 0.8 fold; with B37, 1.1 fold; with B38, 0.8 fold. The same measure for B39: 0.3 fold; for B40: 1 fold.

On to B41, for which the “fold change of affinity” value came to 0.7 fold. The same measure for B42: 0.8 fold; for B43: 0.1 fold; for B44: 0.3 fold.
